Experiments:
[1] = immunoblot after BMA or MG132 treatment; conditions: glycan lost; control: WT CGA
[2] = immunoblot of lysates and conditioned medium; conditions: glycan lost; control: WT CGA

Row | Sequence | degradation_or_half_life [1] | expression_or_secretion [2]
1 | CGA (glycoprotein hormone α polypeptide): N52Q | changes | decreases
2 | CGA (glycoprotein hormone α polypeptide): N52Q/N78Q double mutant (DM) | – | decreases
3 | CGA (glycoprotein hormone α polypeptide): N78Q | changes | decreases

— PMC8920335
